Source: patent US20230106715A1 (BIOSION, published 2023)

T1: human Siglec15 on human-siglec15-2D3-1E1 cells (human, UniProt Q6ZMC9 20-328)
T1 construct: whole, on cells; Transfected HEK-293 cells; also called cell surface human Siglec15
T1 sequence (looked up): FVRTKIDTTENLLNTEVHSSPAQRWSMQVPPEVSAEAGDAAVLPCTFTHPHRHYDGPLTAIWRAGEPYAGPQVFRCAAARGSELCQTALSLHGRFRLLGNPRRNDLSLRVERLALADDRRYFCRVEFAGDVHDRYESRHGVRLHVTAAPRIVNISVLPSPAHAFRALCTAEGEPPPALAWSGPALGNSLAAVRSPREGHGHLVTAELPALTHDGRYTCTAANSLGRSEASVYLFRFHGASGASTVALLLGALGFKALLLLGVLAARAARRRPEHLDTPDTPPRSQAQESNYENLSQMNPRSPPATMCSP

T2: recombinant human Siglec15-his protein (human, UniProt Q6ZMC9 20-263)
T2 construct: In house made; Biotin-labeled in the capture ELISA
T2 sequence: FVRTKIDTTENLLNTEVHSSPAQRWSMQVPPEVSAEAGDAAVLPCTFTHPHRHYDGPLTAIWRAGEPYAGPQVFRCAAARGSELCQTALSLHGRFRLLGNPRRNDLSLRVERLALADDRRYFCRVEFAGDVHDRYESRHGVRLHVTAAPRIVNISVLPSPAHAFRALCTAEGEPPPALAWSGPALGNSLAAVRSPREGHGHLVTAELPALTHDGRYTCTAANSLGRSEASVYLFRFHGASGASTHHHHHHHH


Experiments:
[1] = target: T1, human Siglec15 on …; test: cell based binding FACS on human-siglec15-2D3-1E1 cells
Experimental: The binding activities of the anti-Siglec15 antibodies to cell surface Siglec15 were tested by flow cytometry (FACS), using in-house prepared human-siglec15-2D3-1E1 cells expressing human Siglec15 (amino acid residues Met1-Pro328 of uniprot #Q6ZMC9) on cell membranes. The human-siglec15-2D3-1E1 cells were prepared by transfecting HEK-293 cells (ATCC #CRL-1573) with pCMV-T-P plasmids inserted with human Siglec15 coding sequence between EcoRI and XbaI sites, following the instruction of lipofectamine 3000 transfection reagent (Thermo Fisher). The human-siglec15-2D3-1E1 cells were harvested from cell culture flasks, washed twice and re-suspended in phosphate buffered saline (PBS) containing 2% v/v Fetal Bovine Serum (FACS buffer). 2×10⁵ cells per well in 96 well-plates were incubated in 100 μL serially diluted anti-Siglec15 antibodies or controls (starting at 66.67 nM, 5-fold serial dilution) in FACS buffer for 40 minutes on ice. […] Following a 40-minute incubation at 4° C. in dark, cells were washed three times and re-suspended in FACS buffer. Fluorescence was measured using a Becton Dickinson FACS Canto II-HTS equipment. Data was analyzed using Graphpad Prism software and EC₅₀ values were reported.

[2] = target: T2, recombinant human Siglec15-his protein; test: capture ELISA, captured antibody, biotin-labeled human Siglec15-his in solution
Experimental: Briefly, 96-well plates were coated with 100 μl of 2 μg/ml AffiniPure Goat Anti-Human IgG F(ab′)₂ fragment specific (Jackson Immuno Research, Cat #109-005-097) in PBS for 2 hours at 37° C. Plates were washed once with wash buffer (PBS+0.05% v/v Tween-20, PBST) and then blocked with 200 μl blocking buffer (5% w/v non-fatty milk in PBST) overnight at 4° C. Plates were washed 4 times and respectively incubated with 100 μl serially diluted anti-Siglec15 antibodies of the disclosure, the benchmark and hIgG (human immunoglobulin (pH4) for intravenous injection, Hualan Biological Engineering Inc.), 5-fold dilution in 2.5% w/v non-fatty milk in PBST starting at 66.7 nM, for 40 minutes at 37° C., and then washed 4 times again. Plates containing captured antibodies were incubated with 100 μl biotin-labeled human Siglec15-his protein (in house made with SEQ ID NO: 20, 145 ng/ml in 2.5% w/v non-fatty milk in PBST) for 40 minutes at 37° C., washed 4 times, and incubated with streptavidin conjugated HRP (1:10000 dilution in PBST, Jackson Immuno Research, Cat #016-030-084, 100 μl/well) for 40 minutes at 37° C. After a final wash, plates were incubated with 100 μl/well ELISA substrate TMB (Innoreagents, Cat #TMB-S-002). The reaction was stopped in 4 minutes at room temperature with 50 μl/well 1M H₂SO₄, and the absorbance of each well was read on a microplate reader using dual wavelength mode with 450 nm for TMB and 630 nm as the reference wavelength, then the OD (450-630) values were plotted against antibody concentration. Data was analyzed using Graphpad Prism software and EC₅₀ values were reported.

[3] = target: T3, human Siglec15-Fc protein (human); test: competitive ELISA: biotin-labeled human Siglec15-Fc in solution, competitor coated benchmark
T3 construct: In house made; also called recombinant human Siglec15 protein with human IgG1 Fc at the C-terminus
Experimental: The abilities of the anti-Siglec15 antibodies of the disclosure to block benchmark-human Siglec15 binding were measured in a competitive ELISA assay. Briefly, the benchmark was coated on 96-well micro plates at 2 μg/mL in PBS, 100 μl per well, and incubated for 2 hours at 37° C. Then plates were washed once with wash buffer, and blocked with 5% w/v non-fatty milk in PBST overnight at 4° C. The next day, the anti-Siglec15 antibodies of the disclosure or controls were diluted with biotin labeled human Siglec15-Fc protein (prepared in-house with SEQ ID NO: 19, 37 ng/ml in PBST with 2.5% w/v non-fatty milk), starting at 80 nM with a 4-fold serial dilution, and incubated at room temperature for 40 minutes. After plate washing 4 times, the antibody/Siglec15-Fc mixtures were added to benchmark coated plates, 100 μl per well. After incubation at 37° C. for 40 minutes, plates were washed 4 times again using wash buffer. Then the plates were added and incubated with 100 μl/well streptavidin conjugated HRP for 40 minutes at 37° C. Plates were washed again using wash buffer. Finally, TMB was added and the reaction was stopped using 1M H₂SO₄, and the absorbance of each well was read on a microplate reader using dual wavelength mode with 450 nm for TMB and 630 nm as the reference wavelength, then the OD (450-630) values were plotted against antibody concentration. Data was analyzed using Graphpad Prism software and IC₅₀ values were reported.

T3 sequence (chain, as listed by the source limits assumed): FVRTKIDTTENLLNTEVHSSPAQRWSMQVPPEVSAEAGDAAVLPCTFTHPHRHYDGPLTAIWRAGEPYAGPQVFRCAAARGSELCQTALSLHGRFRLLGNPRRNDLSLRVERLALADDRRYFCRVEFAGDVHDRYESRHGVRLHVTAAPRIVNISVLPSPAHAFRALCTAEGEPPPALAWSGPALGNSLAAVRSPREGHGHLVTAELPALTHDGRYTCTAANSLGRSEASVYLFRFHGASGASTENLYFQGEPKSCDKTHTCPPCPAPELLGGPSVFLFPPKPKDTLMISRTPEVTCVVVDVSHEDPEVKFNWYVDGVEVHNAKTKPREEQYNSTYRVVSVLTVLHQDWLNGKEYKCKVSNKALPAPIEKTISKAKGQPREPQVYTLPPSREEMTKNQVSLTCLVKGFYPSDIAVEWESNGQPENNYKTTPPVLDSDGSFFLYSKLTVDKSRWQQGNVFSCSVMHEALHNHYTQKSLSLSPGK

EC50 [1] [nM]	EC50 [2] [nM]	IC50 [3] [nM]	Binder
11.3	1.79	0.229	anti-Siglec15 benchmark (ch5G12) (antibody, human IgG1, kappa, V domains shown, ch5G12 (US 20190202912A1); also called BM; Siglec15-ch5G9) VH: QVQLQQPGAELVKPGASVKMSCKASGYTFTSYWITWVIQRPGQGLEWIGDIYCGSDTMHYNEKFKNKATLTVDTSSSTAYMQLSSLTSEDSAVYYCARWWDYGSSYDYFDYWGQGTTLTVSS VL: DIKMTQSPSSMYASLGERVTITCKASQDINSYLSWFQQKPGKSPKTLIYRANRLVDGVPSRFSGSGSGQDYSLTISSLEYEDMGIYYCLQYDEFPYTFGGGTKLEIKR
–	0.0902	0.0357	A2A5C7E8-3 (antibody, human IgG1, kappa, V domains shown, Variant of A2A5C7E8 modified in VH CDR2 (X2 = K)) VH: EVQLVQSGAEVKKPGESLRISCKGSGYSFTTYWISWVRQMPGKGLEWMGLIDPSDSYTNYSPSFKGHVTISTDKSISTAYLQWSSLKASDTAMYYCARGGYYGSEEDYWGQGTLVTVSS VL: EIVLTQSPGTLSLSPGERATLSCRASQSVSSSRLAWFQQKSGQAPRLLIFDASSRATGIPDRFSGSGSGTDFTLTISRLEPEDFAVYYCQQYGSSPRTFGQGTKVEFKR

More lines, now with the values behind:

Binder	EC50 [1] [nM]	EC50 [2] [nM]	IC50 [3] [nM]
A1E10G7H9 (antibody, V domains shown, Fully human antibody from transgenic mouse hybridoma) VH: QVQLQESGPGLVKPSGTLSLTCAVSGGSISSSNWWHWVRQPPGKGLEWIGEIYHSGNTNYKPSLKSRVTISVDKSKNQFSLKLSSVTAADTAVYYCARDEGNGWSNAFDIWGQGTMVTVSS VL: ENVLTQSPGTLSLSPGERVTLSCRASQSVSSSYLAWYQQKPGQAPRFLIYGASGGATGIPDRFSGSGSGTDFTLTISRLEPEDFAVYYCQQYGSSPITFGQGTRLEIK	0.182	–	–
A2A5C7E8 (antibody, V domains shown, Fully human antibody from transgenic mouse hybridoma; also called A2A5C7E8-1) VH: EVQLVQSGAEVKKPGESLRISCKGSGYSFTTYWISWVRQMPGKGLEWMGLIDPSDSYTNYSPSFQGHVTISTDKSISTAYLQWSSLKASDTAMYYCARGGYYGSEEDYWGQGTLVTVSS VL: EIVLTQSPGTLSLSPGERATLSCRASQSVSSSRLAWFQQKSGQAPRLLIFDASSRATGIPDRFSGSGSGTDFTLTISRLEPEDFAVYYCQQYGSSPRTFGQGTKVEFK	24.1	0.0848	0.0387
A2A5C7E8-2 (antibody, human IgG1, kappa, V domains shown, Variant of A2A5C7E8 modified in VH CDR2 (X1 = E)) VH: EVQLVQSGAEVKKPGESLRISCKGSGYSFTTYWISWVRQMPGKGLEWMGLIDPSESYTNYSPSFQGHVTISTDKSISTAYLQWSSLKASDTAMYYCARGGYYGSEEDYWGQGTLVTVSS VL: EIVLTQSPGTLSLSPGERATLSCRASQSVSSSRLAWFQQKSGQAPRLLIFDASSRATGIPDRFSGSGSGTDFTLTISRLEPEDFAVYYCQQYGSSPRTFGQGTKVEFKR	–	0.502	0.0178
